In PMC9221696:

B1: wild-type Fas receptor (Fas/CD95) tagged with mCerulean3 or mVenus [human] / Cerulean3-tagged FADD containing only the death domain (FADD DD) [human] (parent)
chain 1: LCAAFNVICDNVGKDWRRLARQLKVSDTKIDSIEDRYPRNLTERVRESLRIWKNTEKENATVAHLVGALRSCQMNLVADLVQEVQ
chain 2: QVTDINSKGLELRKTVTTVETQNLEGLHHDGQFCHKPCPPGERKARDCTVNGDEPDCVPCQEGKEYTDKAHFSSKCRRCRLCDEGHGLEVEINCTRTQNTKCRCKPNFFCNSTVCEHCDPCTKCEHGIIKECTLTSNTKCKEEGSRSNLGWLCLLLLPIPLIVWVKRKEVQKTCRKHRKENQGSHESPTLNPETVAINLSDVDLSKYITTIAGVMTLSQVKGFVRKNGVNEAKIDEIKNDNVQDTAEQKVQLLRNWHQLHGKKEAYDTLIKDLKKANLCTLAEKIQTIILKDITSDSENSNFRNEIQSLV
B2: wild-type Fas receptor (Fas/CD95) tagged with mCerulean3 or mVenus [human] / itself (parent)
chain: B1 chain 2

Legend:
[1] = variants of: B1; test: flow-cytometric FRET between Fas and FADD DD in live cells; conditions: with Cerulean3-tagged FADD containing only the death domain (FADD DD) [human], RapoC2 (Fas-deficient Jurkat) cells, read off a plot
itself = variants of: B2; test: flow-cytometric FRET (mCerulean3/mVenus) in live cells; conditions: with itself, RapoC2 (Fas-deficient Jurkat) cells, 24 h post-transfection, read off a plot

chain 2 C174V
screen value ([1]; FasL-LZ 5 min, parent: 1.3): 1.4 | screen value ([1]; FasL-LZ 15 min, parent: 1.5): 1.6 | screen value ([1]; FasL-LZ 30 min, parent: 1.7): 1.8 | screen value ([1]; FasL-LZ 60 min, parent: 1.9): 1.9 | screen value ([1]; FasL-LZ 120 min, parent: 1.9): 2

chain 2 E236K
screen value ([1]; FasL-LZ 5 min, parent: 1.3): 1.1 | screen value ([1]; FasL-LZ 15 min, parent: 1.5): 1.1 | screen value ([1]; FasL-LZ 30 min, parent: 1.7): 1.1 | screen value ([1]; FasL-LZ 60 min, parent: 1.9): 1.1 | screen value ([1]; FasL-LZ 120 min, parent: 1.9): 1.1

chain 2 A232D
screen value ([1]; FasL-LZ 5 min, parent: 1.3): 1.1 | screen value ([1]; FasL-LZ 15 min, parent: 1.5): 1.1 | screen value ([1]; FasL-LZ 30 min, parent: 1.7): 1.1 | screen value ([1]; FasL-LZ 60 min, parent: 1.9): 1.1 | screen value ([1]; FasL-LZ 120 min, parent: 1.9): 1.1

chain 1 C174V
screen value (itself; FasL-LZ 5 min, parent: 1.5): 1.5 | screen value (itself; FasL-LZ 15 min, parent: 1.9): 1.9 | screen value (itself; FasL-LZ 30 min, parent: 2): 2.1

chain 1 E236K
screen value (itself; FasL-LZ 5 min, parent: 1.5): 1.3 | screen value (itself; FasL-LZ 15 min, parent: 1.9): 1.5 | screen value (itself; FasL-LZ 30 min, parent: 2): 1.6 | screen value (itself; FasL-LZ 60 min, parent: 1.9): 1.6 | screen value (itself; FasL-LZ 120 min, parent: 1.9): 1.6

chain 1 A232D
screen value (itself; FasL-LZ 5 min, parent: 1.5): 1.3 | screen value (itself; FasL-LZ 15 min, parent: 1.9): 1.5 | screen value (itself; FasL-LZ 30 min, parent: 2): 1.6 | screen value (itself; FasL-LZ 60 min, parent: 1.9): 1.6 | screen value (itself; FasL-LZ 120 min, parent: 1.9): 1.6
